Measurements taken from patent publication US20250320277A1 (ALBERT EINSTEIN COLLEGE OF MEDICINE, published 2025).

What was measured:
MAYV p62-E1 [1] = biological target: T1, MAYV p62-E1 (Mayaro virus (BeAr 20290)); test: ELISA, plate-coated p62-E1, eight-point mAb dilution
T1 construct: extracellular domain

MAYV p62-E1 [2] = biological target: T1, MAYV p62-E1
MAYV p62-E1 [3] = biological target: T1, MAYV p62-E1; test: BLI, […], global 1:1 fit; […]

B1: DC2.M17 (antibody, V domains shown)
VH: EVQLVESGSELKKPGASVRVSCEASGYSFTSHTIVWMRQAPGQGLECLGWINTNTGNPTYAQGFTGRFVFSLDTSVSTAYLQISSLKAADTAVYYCARVLKCLGGSASCSGHGYYDYGMAVWGQGTTVTVSS
VL: DIVLTQSPLSLPVTPGEPASISCRSSQSLLHSNGYNFLHWYLQKPGQSPQLLIYLGSIRASGVPDRFSGSGSGTDFTLKISRVEAEDVGVYYCMQALQTFMYTFGQGTKLEIK
EC50 (MAYV p62-E1 [1]): 1.9 nM

B2: DC2.M301 (antibody, V domains shown)
VH: QVQLVQSGAEVKKPGAAVKVSCKASGYTFSGYYIHWVRQAPGQGLEWMGWINPNSGGTDFAQKFQGRVTMTRDTSISTAYMELSRLRSDDTAVYLCSRDPGYTYGYPLGYWGQGTLVTVSS
VL: ETTLTQSPGTLSLSPGERATLSCRASQSVSSSYLAWYQQKPGQAPRLLIYGTSSRATGIPDRFSGRGSGTDFTLTISRLEPEDFAVYYCQQYGNSPPYTFGQGTKVDIK
koff (MAYV p62-E1 [2]): 0.0047 s⁻¹ | kon (MAYV p62-E1 [2]): 300000 M⁻¹ s⁻¹ | Kd (MAYV p62-E1 [3]): 15 nM | EC50 (MAYV p62-E1 [1]): 4.6 nM

B3: DC2.M287 (antibody, V domains shown)
VH: EVQLVESGGGLVQPGGSLRLSCAASGFTFRDYWMIWVRQTPGKGLEWVANINRNGNEKHYVDSLKGRFTISRDNTKNSLYLQVNGLSAEDTAVYYCVRDSSPSFGPGNYYDAFDIWGQGTTVTVSS
VL: DIRVTQSPSSLSASVGDRVTITCRASQDIRNEVGWYQQKPGQAPKVLIFAASTLQSGVPSRFRGSGSGTVFTLTISSLQPEDLATYYCLQDFNYPRTFGQGTKVDIK
EC50 (MAYV p62-E1 [1]): 220 nM
